Data from US8124424B2, “Single molecule-format bioluminescent probe” (National Institute of Advanced Industrial Science and …, priority 2007, dated 2012).

Experiments:
AR LBD [1] = biological target: T1, AR LBD (Homo sapiens, UniProt P10275); test: Inhibitory effects of androgen antagonists on DHT-induced luminescence, HeLa cells carrying pAR-NC and pTK-RLuc; assay type: cell-based; parameters: The cDNA-encoding AR LBD (672-910 AA) was modified by PCR; expressed in transfected cells; host or cells: HeLa; conditions: 5×10^−4 M antagonist 20 min, then 10^−5 M DHT 20 min, FIG. 8
T1 sequence (P10275 672-910): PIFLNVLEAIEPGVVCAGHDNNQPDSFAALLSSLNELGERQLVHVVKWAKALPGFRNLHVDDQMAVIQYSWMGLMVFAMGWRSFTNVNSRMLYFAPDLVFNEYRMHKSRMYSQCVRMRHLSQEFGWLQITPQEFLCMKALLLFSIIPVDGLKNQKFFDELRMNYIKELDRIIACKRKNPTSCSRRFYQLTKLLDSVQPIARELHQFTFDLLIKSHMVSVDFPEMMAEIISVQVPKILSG
Experimental: HeLa cells were transfected with pAR-NC and pTK-RLuc, and extensively incubated for 16 h. […] The luminescence intensities of each well were determined with a Dual-luciferase assay kit (Promega).

AR LBD [2] = test: Comparison of the DHT-induced luminescence of probes pAR-CN, pAR-NC, pAR-mut in HeLa cells; assay type: cell-based, human; conditions: 10^−5 M DHT stimulation, FIG. 3
Experimental: Cervical carcinoma-derived HeLa cells were sub-cultured in 12-well plates in Dulbecco's modified eagle's medium (DMEM; Sigma) supplemented with 10% steroid-free fetal bovine serum (FBS) and 1% penicillin-streptmycin (P/S) at 37° C. in a 5% CO2 incubator. HeLa cells in 12-well plates were transfected with pAR-NC, pAR-CN, or pAR-mut using a transfection reagent, TransIT-LT1 (Minis), which guarantees about 8% transfection efficiency to HeLa cells when incubated for 24 h. The cells were incubated for 12 h and then used for the following experiments.
HeLa cells in 12-well plates were transfected with the plasmids and incubated for 16 h. […] The recovered enzyme activities by ligands were estimated with a luminescence substrate kit, Bright Glo (Promega) or Dual-luciferase assay kit (Promega), according to the manufacturer's manuals. […] After a 3 min incubation at 37° C., the luminescence intensities from the cell lysates were recorded with a luminometer (Minilumat LB9506; Berthold). The protein amounts in the cell lysates were subsequently determined using a Bradford reagent for a normalization of the luminescence intensities. In specific, the firefly luminescence, which was normalized against the determined protein amount, was expressed as “RLU/protein (Bright Glo)”. The unit means the firefly luminescence intensity from the 1 μg of cell lysate.

AR LBD [3] = biological target: T1, AR LBD; test: Ligand selection of pSimbe-LXA probe in four cell lines (MCF-7, CHO, HeLa, NIH 3T3); assay type: cell-based; parameters: The cDNA-encoding AR LBD (672-910 AA) was modified by PCR; expressed in transfected cells; host or cells: HeLa; conditions: 10^−5 M E2, T, DHT, 20 minutes, FIG. 16
AR LBD [4] = biological target: T1, AR LBD; test: Androgenic activity of ligands with pSimbe (CBLuc) probes in MCF-7 cells (dose-response, time-course, repetitive measurement, ligand panel); assay type: cell-based; conditions: two stimulations with 10^−5 M DHT for 20 minutes with medium replacement, FIG. 21
Experimental: As controls, vehicle #1 (0.1% DMSO) and vehicle #2 (0.02M phosphoric buffer saline (PBS)) were tested.

[5] = biological target: T2, androgen receptor ligand binding domain (AR LBD; 672-910 AA) (human, UniProt P10275 672-910); test: cell-based or functional assay
T2 sequence (looked up): T1 sequence (P10275 672-910)

Molecule: CC12CC1(C)C(=O)N(c1cc(Cl)cc(Cl)c1)C2=O (centres unmarked) [procymidone]
- percentage inhibition of the DHT-induced luminescence (AR LBD [1]): 68%

Molecule: pAR-mut: plasmid/probe with an alanine mutant (AQNLF) of the FQNLF motif (RGAAQNLFQSV)
- luminescence intensities of probe-carrying cells compared among the three probes (AR LBD [2]): four times weaker luminescence intensities than the cells carrying pAR-NC

Molecule: pSimbe-LXA: CBLuc probe with AR LBD and reverse sequence of LXXLL motif from Xenopus TIF2 (SSDQLLRHLIKHK)
- luminescence intensity versus the background in cell lines (AR LBD [3]): marked increase in the luminescence intensity versus the background
- reversibility of luminescence on repeated DHT stimulation (AR LBD [4]): reversible recovery in the luminescence intensities

Molecule: RGAFQNLFQSV [AR N-terminal motif peptide (11 AA; 20RGAFQNLFQSV30), 'FQNLF' motif of human AR NTD]
- t1/2 of the rise in luminescence after 10^-6 M DHT, HeLa cells carrying pAR-NC [5]: 4.5 min
